Source: PMC6818353, “Diversified Application of Barcoded PLATO (PLATO-BC) Platform for Identification of Protein Interactions” (Genomics, Proteomics & Bioinformatics, 2019)

Target: T1, N-terminal biotinylated ubiquitin (UniProt P0CG48 1-76, biotin on the N-terminus)
T1 construct: also called Bio-Ub; free ubiquitin peptide; source: bought: BostonBiochem (Catalog No. UB-570)
Test: pull-down; 5 μg His-tagged protein incubated with 1 μg biotinylated molecule (H4ac peptide or Ub) in 50 mM Tris pH 7.5, 150 mM NaCl, 0.1% NP-40, 2 h at 4 °C; captured on streptavidin-coated beads; immunoblot with anti-V5
Conditions: both partners purified

binding result: binds
B1: V5-His6-tagged RIOK3 protein, purified from E. coli (natural protein, human, UniProt O14730 1-519, looked up)
chain: MDLVGVASPEPGTAAAWGPSKCPWAIPQNTISCSLADVMSEQLAKELQLEEEAAVFPEVAVAEGPFITGENIDTSSDLMLAQMLQMEYDREYDAQLRREEKKFNGDSKVSISFENYRKVHPYEDSDSSEDEVDWQDTRDDPYRPAKPVPTPKKGFIGKGKDITTKHDEVVCGRKNTARMENFAPEFQVGDGIGMDLKLSNHVFNALKQHAYSEERRSARLHEKKEHSTAEKAVDPKTRLLMYKMVNSGMLETITGCISTGKESVVFHAYGGSMEDEKEDSKVIPTECAIKVFKTTLNEFKNRDKYIKDDFRFKDRFSKLNPRKIIRMWAEKEMHNLARMQRAGIPCPTVVLLKKHILVMSFIGHDQVPAPKLKEVKLNSEEMKEAYYQTLHLMRQLYHECTLVHADLSEYNMLWHAGKVWLIDVSQSVEPTHPHGLEFLFRDCRNVSQFFQKGGVKEALSERELFNAVSGLNITADNEADFLAEIEALEKMNEDHVQKNGRKAASFLKDDGDPPLLYDE
notes: also called V5-fused RIOK3; pET-DEST42-RIOK3; source: E. coli DE3 strain, purified
